According to publication doi:10.1101/851261:

Columns and labels:
[1] = molecular target: AjKissR2 (Apostichopus japonicus); test: flow cytometry on cells
[2] = molecular target: AjKissR1 (Apostichopus japonicus); test: flow cytometry on cells

Substance | IC50 [1] | IC50 [2]
AjKiss1a (peptide) | 95.2 nM | –
AjKiss1b (peptide) | – | 353 nM
